assay: soluble on expression in E. coli; label from the status in PepcDB or PDB records

**Q.** With “MVKSIENVKLTKGLFYNSQKKGNDVILALDIDRLLAPYYEAANLPPKKRSYGGWEEREIRGHSLGHWLSAAAAMYETTGDKALLERIDRAVQELATIQDDVGYVGGVKRAHFDEMFSGEFQVGHFNIAGTWVPWYNLHKLFAGLIDVHQLTGHSLALTVVTKLADWAKKGTDQLTDDQFQRMLICEHGGMNEAMADLYTLTGHKDYLQLAIRFCHWAVLEPLANGIDELEGKHANTQIPKVIGAAKLFEITGDDTYRAIAEFFWRQVTNDRSYIIGGNSNSEHFGPANKETLGVETAETCNTYNMLKLTEHLFRWNRSSQLMDYYEKALYNHILASQDPDSGMKTYFVSLQPGHFKVYSSLEESFWCCFGTGLENPARYTRTIYDRDDRHIYVNLFMASEIHLKDLQVQIRQETNFPETDRTKLTFVKADGVSIKLHIRVPEWVAGPVTARINGKETFSESGADYLTIEREWQKGDEIEVHLPMELRIYEAKDDSHKVGIMYGPIVLAGTFGKDHFPETDIVPNHLSLHNHPLIDVPTLVATKKTPDQWIHPVEGRSLTFRTAAIGQPGNVQITLIPFYALHHERYTVYWNLMSEVEYEAFKARKEVESDQLQARTVDAVQPGEQQPEVEHQLKANHSETGYLNIMQKRWRDSRGEDGFFSYVMKVKPNQQMSLFVTYYGGDHGLFVDGKWCDRSFRILIDDEVIKEEQLLGKNPGETLDVYYPIPLALTEGKEEVVVTFASKEGTVAGGVYGVRMLCNLEHHHHHH” as the sequence, how does the “soluble on expression in E. coli” value read?
**A.** soluble

**Q.** Which “soluble on expression in E. coli” value does the source give for “MGVTLAKGGNVSLDKQAPNLTAVAVGLGWDARSTTGHEFDLDASALATGENKKVLSDQHFVFYNNLRSPDGSIQHEGDNLTGEGDGDDEVINVDLKAVPPNVTNIFFPVSIHEAELRGQNFGQVTNAFIRVVDRSTGNELVRYDLSEDASSETAMTFGELYRHNGEWKFRAIGQGYASGLSGIARDYGVNI” here?
**A.** not soluble

**Q.** Which “soluble on expression in E. coli” value does the source give for “MAEPQPASSGLTDETAFSCCSDPDPSTKDFLLQQTMLRIKDPKKSLDFYTRVLGLTLLQKLDFPAMKFSLYFLAYEDKNDIPKDKSEKTAWTFSRKATLELTHNWGTEDDETQSYHNGNSDPRGFGHIGIAVPDVYSACKRFEELGVKFVKKPDDGKMKGLAFIQDPDGYWIEILNPNKIATII” here?
**A.** soluble

**Q.** For “MIKIPQAGRDLETIAVIGAGTIGSAISISLAKAGYHVISTRRRPDLNAGLKAYGITVTSDNVQAVTSADMVILTLKPADLVSEMKKLSQILEGKIVVSMAAAVPIRVIRHILPRSFIVRSMTNIAAEVNAGYTPFCTLEEDEGKISFVSRVLGVFGETERVDEKYMDALTAL”, which “soluble on expression in E. coli” value is on record?
**A.** not soluble

**Q.** Which “soluble on expression in E. coli” value does the source give for “MAHHHHHHMIARDPPQEGRLPDPSRLPYDDERFAEMLLEMEVNGVIDETWQDAKKARMEDVKEIANILSSLKVRDLCCVDVSEKTSNFDYMMFGTCEGARHIHLAAWAVQDADKVHRISKIKRQQTDELWEVVPVGRIVVNLMVESFREEMTLERKWAVTRSMDPLAAANAPISEGRQVKAHGLWTLTLNLQDLEDFEVDYCKDILMRQM” here?
**A.** soluble

**Q.** For “AIATGVYADAVLVSVTVGDTVTLHTAGVKNLQPADVKWYFNDIRIAQLDGDLRFNCTDIQCNDRTEIFIDRLRLDRKTGALTIVNITNTHSGVYQLVVIGGGGTIFNVTVHDDPATHYNQVKKNQGESVTFNPGVRRDLIVVLKCLLNNTLIAEISVNQSQICADVQCKERFTDRLKLDNESASLTITNTNITDSGNYTSVILISSDRRFSITREKRFSLTVTSLSSSQPSGGAIAGIVVMLLLLL”, which “soluble on expression in E. coli” value is on record?
**A.** soluble

**Q.** Which “soluble on expression in E. coli” value does the source give for “MGSDKIHHHHHHMLLYIHGFNSSPFSDKAVITAKYMAQHHPSVIFHQPQLPNTPKAAMALLTTYVEAAIDAKEPLAYIGSSLGGYFASYLAETYGGKAVLVNPAVKPFELFDEFMGPQFNPYTEQHYLVVPEHKREVAEFNTAVIRNPDRFLVLLQTGDEVLDYREAVNKYHHCQLRIEAGGDHSFVGYESHLQTVSQFLHLP” here?
**A.** not soluble

**Q.** Which “soluble on expression in E. coli” value does the source give for “MNFNKLKFGATIGIIGGGQLGKMMAQSAQKMGYKVVVLDPSEDCPCRYVAHEFIQAKYDDEKALNQLGQKCDVITYEFENISAQQLKLLCEKYNIPQGYQAIQLLQDRLTEKETLKSAGTKVVPFISVKESTDIDKAIETLGYPFIVKTRFGGYDGKGQVLINNEKDLQEGFKLIETSECVAEKYLNIKKEVSLTVTRGNNNQITFFPLQENEHRNQILFKTIVPARIDKTAEAKEQVNKIIQSIHFIGTFTVEFFIDSNNQLYVNEIAPRPHNSGHYSIEACDYSQFDTHILAVTGQSLPNSIELLKPAVMMNLLGKDLDLLENEFNEHPEWHLHIYGKSGRKDSRKMGHMTVLTNDVNQTEQDMYAKFEGSN” here?
**A.** soluble

**Q.** Which “soluble on expression in E. coli” value does the source give for “MSTEDALCFTGEEYARHVREYWRGVAESDGFDSEDIRSPVVLTGLFHYDCQSGRRYPDPLLVKRYALLGLHRFNILQGTSFELDALQKFNKTMNLTSSYYITLLANEPGAIPLQKTFQVRVDERKYDTLDLTVAIARLKKDQNEAAETTKEPFVPHFCCSAVSDGVFQGPLPDWPSDDALRHDRNRFYELEKSEWQATDWISLYLELLILATDRGMFGVAQTGLPQVQILKVVIETEEENEKPLDKRLNARRAHVYITFTGLPKSPRLVEIGEHVERKAIIRRVIDDSGYLTLLGKFWSGKDTEQRSKTRQSEEKVESSQKRSRLC” here?
**A.** soluble

**Q.** For “MATVSDDYAQIDISTEEKDKLVAEVMRHVLFKTHQTAGCPIKREELTQIVTKNYRQRVLPALVIKEAGDRLAATFGYEMRELQRTRAPSTRSGRPSQQQVNVDAKSYVLVSKLDPEVYSKYVEHKEAAHVSGFAFVVISIVHLSGGKISEEDLWHQLRRLGLNESDENHPVLGNNKQALELLVQQRYLLKEKLSGPEGHSMMYELAERALDESISGKLKDYISQVVSTSTAAEVD”, which “soluble on expression in E. coli” value is on record?
**A.** soluble

**Q.** Which “soluble on expression in E. coli” value does the source give for “MSLSDRLTAFKELIQAGGAKRPADLIIKNGQLVNVMTAEIYPAEVAIYQGKIVAVDPDVSAYQGTETRVIDAKQQYIVPGLIDGHIHVECSKLSMTSFAEAVVPHGTTSIISGLDEYISVIGVDGLSEIFKEVDQLPMRVFWGAPFKTPYTIPASTIADNIDSTVQAQLQKRSDVYGVWETVREAVETLDEDTLKTLLNAQDNHVPVWGCAPMATGTKLNEYLMSGVRVDHESYDHQELLEKVRKGINVVIRESSVTHFLAENIRAITETNGQIARHVSFCTDDVNAMDIVNKGHLDHLVRLAIAAGVAPMTAIQMATINSAEAYRIDDQVGLIAPGRNADILLVSDLEAFEIKRVLAKGQPVATDGHINQSIERPVRPASLANTIIREAVQASDFEYHVAADASQVTVQTIASEGPFVRHAKTKTLTVEDGIVQIDPAKDVALISVLERFGKNGNQSLGFTSGWTLKKGAMASTAAPDDNNIIVMGVNPDDMALAVNTLIERDGGQVVVADGQILSFLPLPIAGIVSDVTPAELAVQEEGILKASQAIGSEVVDPMFYMTFLPITAIPDLAITDLGNVDCNELRLFDPILTIQEGHHHHHH” here?
**A.** soluble

**Q.** Which “soluble on expression in E. coli” value does the source give for “ISASEDMFEDEDLIPRQNVVITLTHHGYIKRLPISTYRSQKRGGRGIQGMGTNEDDFVQHLFTTNSHHTILFFTNKGKVYRLKGYEIPELGRTAKGIPIINLLQIEQDEYISTIIPIEEFTED” here?
**A.** soluble

**Q.** Which “soluble on expression in E. coli” value does the source give for “MDGCMPGISATTLLKQQNIPESFKFYFKRRFAPLVTDGPHLNELVRPRLKIAIVTETWPPEINGVAMSLLQLCKGLQEQGHKILLVRPQQKRECYEFSPHKECLVHAQRIPKYPELQFGWPQYLKVAKAFEDFTPDVVHVVTEGPLGLTALYAARAKQIPVSSGFHSPFQDFSRFFDLAFLLKPIQGYLRWFHNHTQITCVPSQDTEKALRAFGVTCPLSIVGRGVDPKFFSPDFRNEALRERWKAASDTVVMLYVGRLSPEKEIHILIQNYAAMRRVEPRNVKLVIVGSGPDRARLEALDETQEVIFMGSLSGKNLAEAYASADVFVFASQVETFGNVVLEAMASGLPVVAYDYACAHQYIQHGVTGWLSPLGQPATFIQAMRQLSGVKQLRQMGQRARQCVEHDGWQYPVQQMEQALYRVVKEPYMKLEHHHHHH” here?
**A.** not soluble

**Q.** Which “soluble on expression in E. coli” value does the source give for “MSLTPTVMVVDESRITFLAVKNALEKDGFNVIWAKNEQEAFTFLRREKIDLVFVDVFEGEESLNLIRRIREEFPDTKVAVLSAYVDKDLIINSVKAGAVDYILKPFRLDYLLERVKKIISSTPRVTVSLRKNIEDLEITLKFEDIVRKEIKRSNRTGSRFCVMYVKFEDIMRDYETIKKFFRETDYVLPISASEYLFVLTLTGKHGIEAVTRRMKEKLSERFSYTYVCYPDDGKTYEEIILTLKDRMAKPRGEGHHHHHH” here?
**A.** soluble

Reference: the DeepSol protein solubility set
